Consider two molecules from PMC11840927, “Frataxin Traps Low Abundance Quaternary Structure to Stimulate Human Fe–S Cluster Biosynthesis” (Biochemistry, 2025).

In this experiment the target is T1, NFS1(Δ1–55)-ISD11(S11A)-ACPec complex with N-terminal His6 tag on NFS1 (human | Escherichia coli, UniProt Q9Y697 56-457; Q9HD34 1-91; P0A6A8 1-78, S11A, covalently attached PLP | acyl-4′PPT (assumed mass 523 Da)).
T1 construct: NFS1, human cysteine desulfurase, Δ1–55 (residues 56 to the C-terminus); ISD11 (LYRM superfamily), human, S11A; Escherichia coli acyl-carrier protein (ACPec) associated with NFS1-ISD11; Used uniformly 14N or 15N labelled in the exchange experiments; Calculated masses excluded the N-terminal methionine if present; also called SDAec; His-tagged SDAec; not shown: His6, N-terminal, kept; copies: 2 + …
As to the kind of experiment: native MS; complexes formed before the exchange reaction: SDAec with ISCU2 (1:3) or ISCU2 and FXN (1:3:3), IscS with IscU (1:3), 30 min, room temperature, EMR Orbitrap. Conditions: both partners purified.

B1: ISCU2 (Δ1–35) (natural protein, human, UniProt Q9H1K1-1 36-167, looked up)
chain: HKKVVDHYENPRNVGSLDKTSKNVGTGLVGAPACGDVMKLQIQVDEKGKIVDARFKTFGCGSAIASSSLATEWVKGKTVEEALTIKNTDIAKELCLPPVKLHCSMLAEDAIKAALADYKLKQEPKKGEAEKK
notes: ISCU2, human Fe–S cluster scaffold protein, Δ1–35 (residues 36 to the C-terminus); Two constructs were made, ISCU2-TEV-GST and ISCU2-TEV-GST-His6; Residues of the TEV site may remain at the C-terminus after cleavage (surmised); also called scaffold protein; source: E. coli BL21(DE3), purified (GST column, TEV digestion, Ni-NTA, cation exchange, Sephacryl S100); not shown: GST, C-terminal, cleaved
With B1, the binding result was “binds”.

B2: FXN (Δ1–81) (natural protein, human, UniProt Q16595 82-210, looked up)
chain: GTLGHPGSLDETTYERLAEETLDSLAEFFEDLADKPYTFEDYDVSFGSGVLTVKLGGDLGTYVINKQTPNKQIWLSSPSSGPKRYDWTGKNWVYSHDGVSLHELLAAELTKALKTKLDLSSLAYSGKDA
notes: frataxin (FXN), human, Δ1–81 (residues 82 to the C-terminus); also called frataxin
Take B2: the binding result is recorded as “binds”.
